Paper doi:10.1101/2020.07.06.189761

Experiments:
[1] = target: T1, UM-Pif1ΔN (unmodified) (Saccharomyces cerevisiae, UniProt P07271 234-859, del1-233); test: BLI
T1 sequence: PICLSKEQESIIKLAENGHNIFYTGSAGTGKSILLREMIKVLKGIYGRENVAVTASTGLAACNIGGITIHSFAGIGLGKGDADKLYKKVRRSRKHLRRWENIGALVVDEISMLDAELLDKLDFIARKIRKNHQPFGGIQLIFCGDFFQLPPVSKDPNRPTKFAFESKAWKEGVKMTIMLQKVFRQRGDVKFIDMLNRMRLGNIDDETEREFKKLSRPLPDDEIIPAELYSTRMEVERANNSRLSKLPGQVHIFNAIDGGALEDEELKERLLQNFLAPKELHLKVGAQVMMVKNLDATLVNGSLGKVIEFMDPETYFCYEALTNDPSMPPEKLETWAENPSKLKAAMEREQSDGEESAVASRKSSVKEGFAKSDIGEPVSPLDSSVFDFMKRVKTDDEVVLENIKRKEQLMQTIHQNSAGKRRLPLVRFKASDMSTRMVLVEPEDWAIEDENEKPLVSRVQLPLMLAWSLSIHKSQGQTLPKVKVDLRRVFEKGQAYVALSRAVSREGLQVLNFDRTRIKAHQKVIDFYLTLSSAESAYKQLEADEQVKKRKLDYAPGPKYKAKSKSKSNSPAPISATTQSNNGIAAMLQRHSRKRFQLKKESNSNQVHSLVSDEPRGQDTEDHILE

[2] = target: T2, UM-Pif1 (unmodified Pif1) (Saccharomyces cerevisiae, UniProt P07271 1-859); test: BLI
T2 sequence: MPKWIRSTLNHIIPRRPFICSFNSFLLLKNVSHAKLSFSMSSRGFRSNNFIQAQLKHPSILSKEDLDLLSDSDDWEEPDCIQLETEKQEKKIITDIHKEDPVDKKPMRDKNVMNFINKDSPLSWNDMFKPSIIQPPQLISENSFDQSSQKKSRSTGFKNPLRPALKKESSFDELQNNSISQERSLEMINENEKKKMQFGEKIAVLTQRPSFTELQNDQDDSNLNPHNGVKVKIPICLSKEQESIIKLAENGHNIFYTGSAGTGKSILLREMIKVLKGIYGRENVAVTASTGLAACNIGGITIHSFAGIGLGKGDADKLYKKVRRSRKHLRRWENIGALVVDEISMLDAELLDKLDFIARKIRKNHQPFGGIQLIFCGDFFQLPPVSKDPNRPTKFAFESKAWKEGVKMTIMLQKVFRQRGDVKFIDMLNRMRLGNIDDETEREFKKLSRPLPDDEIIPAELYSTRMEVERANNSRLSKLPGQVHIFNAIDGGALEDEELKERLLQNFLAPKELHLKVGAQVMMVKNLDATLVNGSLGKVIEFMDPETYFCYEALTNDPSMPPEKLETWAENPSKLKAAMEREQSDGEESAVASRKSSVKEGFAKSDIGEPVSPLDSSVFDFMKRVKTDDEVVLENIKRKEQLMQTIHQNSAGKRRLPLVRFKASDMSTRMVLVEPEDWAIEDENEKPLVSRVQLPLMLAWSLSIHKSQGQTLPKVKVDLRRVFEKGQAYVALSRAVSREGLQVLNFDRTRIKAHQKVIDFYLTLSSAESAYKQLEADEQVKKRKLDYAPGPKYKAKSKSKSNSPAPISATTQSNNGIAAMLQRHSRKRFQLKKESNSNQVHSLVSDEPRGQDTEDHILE

TTTTTTTTTTTTTTTTTTTTTTTTTGTGTCACTCACATAGCGTTC (ssDNA) [T1 45-nt ssDNA] was tested, and the Kd [1] was 14.1 ± 1.5 nM and the Kd [2] was 19.1 ± 5.1 nM.
